# Assay results published in patent US6153580.
# Target: β-casein
substance,measurement,value
Hin47 Ser-197→alanine analog (enzyme),protease activity on the substrate β-casein,< 10%
